Experimental data: patent US20050059087A1, “Antibodies directed to the deletion mutants of epidermal growth factor receptor and uses thereof” (priority 2003, published 2005)

What was measured:
Pep-3 (EGFRvIII epitope) = target: T1, Pep-3 (EGFRvIII epitope) (Homo sapiens, UniProt P00533, DELINS30-297G); test: Biacore (surface plasmon resonance) binding kinetics to Pep-3; conditions: for Ka / dissociation rate constant (kd, koff): parentheses 95% confidence interval
T1 construct: purchased Anatech, Inc. (San Jose, Calif.); host or cells: custom synthesis
Protocol: All antigen and mAb samples for Biacore and KinExA analysis were prepared in vacuum-degassed HBS-P buffer (0.01 M HEPES, 0.15 M NaCl, 0.005% surfactant P-20, Biacore Inc., Uppsala, Sweden) containing 100 μg/mL BSA. […] Research grade CM5 biosensor chips were purchased from Biacore, Inc.
Standard EDC/NHS and carbohydrate coupling was used to covalently immobilize mAbs to a CM5 sensor chip. To minimize mass transport and crowding mAbs were immobilized at levels that gave a maximum antigen binding response (Rmax) of no more than 50-100 RU. A reference flow cell on each chip was activated and blocked with no mAb immobilization to serve as a control.
All Biacore kinetic experiments were conducted at 23° C. […] Antigen samples were randomly injected over the biosensor surface in triplicate at 100 μL/min. Several buffer blanks were injected intermittently over the course of an experiment for double referencing. Each pep-3 concentration and blank were injected for 90 seconds. Dissociation was followed for 13 to 180 minutes.
All Biacore sensorgrams were processed using Scrubber software (Version 1.1f, BioLogic Software, Australia). Sensorgrams were first zeroed on the y-axis and then x-aligned at the beginning of the injection. Bulk refractive index changes were removed by subtracting the reference flow cell responses. The average response of all blank injections was subtracted from all analyte and blank sensorgrams to remove systematic artifacts between the experimental and reference flow cells. CLAMP biosensor data analysis software (Version 3.40, BioLogic Software, Australia) was used to determine ka and kd from the processed data sets. Data from all flow cells were globally fit to a 1:1 bimolecular binding model that included a mass transport term. […] The KD was calculated from the quotient kd/ka.
Two CM5 sensor chips were used in total to immobilize both mAbs. […] Biacore 2000 optical biosensors were used for all studies.
Next, pep-3 was flowed across the mAb immobilized biosensor surfaces. The starting concentration of pep-3 was 1.25 μM, which was followed with eight two-fold serial dilutions in randomized triplicate injections. Blank injections were run every sixth sample throughout the injection series for double referencing purposes.
Finally, the biosensor data was processed with Scrubber and the data was fit to curves utilizing Clamp with a 1:1 interaction model with a term included for mass transport. […]

[1] = target: T2, EGFrVIII peptide sequence (residues 1-20) (Homo sapiens, UniProt P00533, DELINS30-297G); test: Epitope mapping by SPOTs peptide array and Alanine scanning; format: binding; conditions: SEQ ID 94/98 = EEKKGNYVVT; 95 = LEEKKGNYVVTD; 96 = YVVTDH; 97 = YVVTD; 99 = GNYVVT
T2 construct: purchased Sigma-Genosys (custom SPOTs array)
From the text: The approach that was used was a custom SPOTs peptide array (Sigma Genosys) to study the molecular interaction of the human anti-EGFrVIII antibodies with their peptide epitope. SPOTs technology is based on the solid-phase synthesis of peptides in a format suitable for the systematic analysis of antibody epitopes. Synthesis of custom arrayed oligopeptides is commerically available from Sigma-Genosys. A peptide array of overlapping oligopeptides derived from the amino-acid sequence of the EGFr VIII variant was ordered from Sigma-Genosys.
A series of nine 12-mer peptides were synthesized as spots on polypropylene membrane sheets. The peptide array spanned residues 1-20 of the EGFrVIII sequence, representing the deletion of amino acids 6-273 in the extracellular domain of wtEGFr, and the generation of a glycine (G) residue at the junction point. Each consecutive peptide was offset by 1 residue from the previous one, yielding a nested, overlapping library of arrayed oligopeptides. The membrane carrying the 9 peptides was reacted with 9 different anti EGFrVIII antibodies (1 μg/ml). The binding of the mAbs to the membrane-bound peptides was assessed by an enzyme-linked immunosorbent assay using HRP-conjugated secondary antibody followed by enhanced chemiluminescence (ECL).
In addition, functional epitopes were mapped by combinatorial Alanine scanning. In this process, a combinatorial Alanine-scanning strategy was used to identify amino acids in the EGFrVIII peptide necessary for interaction with anti-EGFRvIII mAbs. To accomplish this, a second set of SPOTs arrays was ordered for Alanine scanning. A panel of variants peptides with alanine substitutions in each of the 12 residues was scanned as above. Spot #1, the unmutated sequence, is a positive control for antibody binding.

[2] = target: T3, EGFRvIII receptor on NR6 M cells (Homo sapiens, UniProt P00533, DELINS30-297G); test: Internalization assay of B-cell culture supernatants (FMAT, glutathione); format: cell-based
T3 construct: expressed in transfected cells; host or cells: NR6 murine fibroblasts (NR6 M)
Protocol: The top 60 native binding B cell culture supernatants were further assayed for their ability to internalize the receptor. NR6 M cells were seeded at 8000 cells/well into 96 well FMAT plates and incubated overnight. Media was removed and 10-15 μl B-Cell culture supernatant in a total volume of 30 μl media, in duplicate was added. Next, 15 μl of secondary antibody (SS Alexa 647 anti-human IgG Fab at 1.5 μg/ml final concentration) was added and the mixture was incubated on ice for 1 hr. An irrelevant B-Cell Culture supernatant was used to see the effect of the culture media. Human anti-EGFRvIII mAb 13.2.1 was used as a positive control starting at 1 μg/ml (final concentration) and negative control was PK 16.3.1 (human anti-KLH IgG2 antibody) at the same concentration. After incubation, the cells were washed with cold PBS, 50 μl media was added to all of the wells, one of the duplicates were incubated at 37° C. for 30 mins while the other duplicate remained on ice. After the incubations media was removed, 100 ul of cold 50 mM glutathione was added to the set incubated at 37° C. and 100 μl of cold media added to the other set, both sets were then left on ice for 1 hr. The cells were then washed with 100 μl cold PBS and then fixed with 1% paraformaldehyde and read in FMAT. The results were expressed as % intermalized, calculated as total fluorescence in the presence of glutathione/total fluorescence in the absence of glutathione X 100.

[3] = target: T4, A431 cells (wild type EGFR) (Homo sapiens, UniProt P00533); test: FACS staining of A431 cells; format: cell-based
T4 construct: host or cells: A431
Protocol: (§1) The specificity of the purified antibodies was ascertained by performing FACS analysis on a panel of cell lines. H80, a human glioblastoma line, and H1477 (H80-EGFRvIII) that expresses high levels of EGFRvIII, A431, a human epidemoid carcinoma line, and A549, a human lung carcinoma cell line were used as the cell lines. All cell lines were from Dr. Bigner except A431 and A549, which were from ATCC (Rockville, Md., U.S.A.). Cells were incubated on ice with 10 μg/ml of the respective antibody for 30 min., washed in FACS buffer and subsequently incubated with PE-conjugated goat anti-human IgG from Jackson ImmunoResearch (West Grove, Pa., U.S.A.). In FIGS. 9A-9L and 10A-10D, the darkened histogram indicates cells stained with an irrelevant IgG, the outlined, or white histogram, represents the staining of the relevant antibodies.

[4] = target: T5, H1477 (H80-EGFRvIII) cells (Homo sapiens, UniProt P00533, DELINS30-297G); test: FACS staining of H1477 (H80-EGFRvIII) cells; format: cell-based
T5 construct: host or cells: H1477 (H80 human glioblastoma line transfected with EGFRvIII)
Protocol: as §1

[5] = target: T6, A549 cells (wild type EGFR) (Homo sapiens, UniProt P00533); test: FACS staining of A549 cells; format: cell-based
T6 construct: host or cells: A549
Protocol: as §1

[6] = target: T7, EGFRvIII rabbit Fc fusion protein (Homo sapiens, UniProt P00533, DELINS30-297G); test: Western blot, purified EGFRvIII rabbit Fc fusion protein, reducing / non-reducing; format: binding; conditions: native and reduced
T7 construct: fragment encoding the extracellular domain of EGFRvIII was generated; made in house; host or cells: 293F cells
Protocol: (§2) Specifcially, a subset of the antibodies were tested for their binding of to lysates of tumor cell lines in Western plates of polyacrylamide gel electrophoresis under either non-reducing or reducing conditions. Purifed recombinant protein is also included. […] Sample identifications: • EGFRvIII—the rabbit Fc fusion protein • H1477—H80 human tumor cell line transfected with EGFRvIII expression contruct. These cells express both EGFR and EGFRvIII. • EGFR—purified wild-type EGFR protein • A431—human tumor cell line expressing only wild-type EGFR • A549—human tumor cell line expressing only wild-type EGFR • H80—human tumor cell line expressing only wild-type EGFR

[7] = target: T8, A431 lysate (wild-type EGFR) (Homo sapiens, UniProt P00533); test: Western blot, A431 lysate; format: binding
T8 construct: host or cells: A431
Protocol: as §2

[8] = target: purified wild-type EGFR protein (Homo sapiens, UniProt P00533); test: Western blot, purified wild-type EGFR protein; format: binding
Protocol: as §2

B1: 095: XenoMax derived human anti-EGFRvIII antibody (antibody, V domains shown)
VH: QVQLQESGPFLVKPSQTLSLTCTVSGGSISSGGYYWSWIRQHPGKGLEWIGFIYYRGNTYYNPSLKSRVTISVDTSKNQFSLKLSSVTAADTAVYYCARDGYCSRTGCYGGWFDPWGQGTLVTVSP
VL: DIVMTQTPLSSPVTLGQPASISCRSSQSLIHTDGNIYLSWLQQRPGQPPRLLIYKISNRFSGVPDRFSGSGAGTDFTLKISRVEAEDVGVYYCMQGTQFPITFGQGTRLEIK
ka (Pep-3 (EGFRvIII epitope); curve fitting): 1.491*10^5 | kd (Pep-3 (EGFRvIII epitope); curve fitting): 9.927*10^−3 | Ka (Pep-3 (EGFRvIII epitope)): 149000 M⁻¹ s⁻¹ | dissociation rate constant (kd, koff) (Pep-3 (EGFRvIII epitope)): 0.0099 s⁻¹ | Epitope mapped by SPOTs [1]: (SEQ ID NO: 96)

B2: 125 D10: B-cell culture supernatant well (antibody, V domains shown)
VH: QVQLQQSGPGLVKPSQTLSLTCAISGDSVSSNNAAWNWIRQSPARGLEWLGRTYYRSKWYNDYVVSVKSRITINPDTSKNQFSLQLNSVTPEDTAVYYCVRATAFDYWGQGTLVTVSS
VL: AIVLTQTPLSSPVTLGQPASISCRSSQSLVHRDGNTYLSWLQQRPGQPPRLLIYKISNRFSGVPDRFSGSGAGTDFTLKISRVEPDDVGVYYCMHTTQLPWTFGQGTKVEIK
With glutathione FL1 × count ([2]; 37° C. for 30 mins, then 50 mM glutathione): 1236 | % internalized, (glut+/glut−) × 100 ([2]; NR6 M cells, 37° C. 30 mins): 52.8% | No glutathione FL1 × count ([2]; set kept on ice, no glutathione): 2342

B3: 139: XenoMax derived human anti-EGFRvIII IgG1, from well 182A5 (antibody, V domains shown)
VH: EVQVLESGGGLVQPGGSLRLSCAASGFTFSSYAMSWVRQAPGKGLEWVSAISGSGGSTNYADSVKGRFTISRDNSKNTLYLQMNSLRAEDTAVYYCAGSSGWSEYWGQGTLVTVSS
VL: DIQMTQSPSSLSASVGDRVTITCRASQGIRNNLAWYQQKPGKAPKRLIYAASNLQSGVPSRFTGSGSGTEFTLIVSSLQPEDFATYYCLQHHSYPLTSGGGTKVEIK
Binding / staining of A431 cells in FACS [3]: stained | kd (Pep-3 (EGFRvIII epitope); curve fitting): 2.981*10^−3 | Ka (Pep-3 (EGFRvIII epitope)): 10300 M⁻¹ s⁻¹ | dissociation rate constant (kd, koff) (Pep-3 (EGFRvIII epitope)): 0.00298 s⁻¹ | Epitope mapped by SPOTs [1]: (SEQ ID NO: 95) | Binding to the EGFRvIII protein on the transfected cell lines ([4]; 10 μg/ml): bind | Selectivity for EGFRvIII expressing cells (H1477) as compared to ABX-EGF ([4]; FIGS. 9A-9L, 10A-10D): superior selectivity | Binding / staining of A549 cells in FACS [5]: stained

B4: 250: XenoMax derived human anti-EGFRvIII antibody, from well 138D2 (antibody, V domains shown)
VH: EGQLLESGGGWVQPGESLRLSCAASGFTFSSYAMSWVRQAPGKGLEWVSAISGSGGSTNYADSVKGRFTISRDNSKNTLYLQVNSLRVEDTAVYYCAGSSGWSEYWGQGTLVTVSS
VL: DIQMTQSPSSLSASVGDSVTITCRTSQGIRKNLGWYQQKPGKAPKRLIYAASSLQSGVPSRFSGSGSGTEFTLTISRLQPEDFATYYCLQHHSYPLTFGGGTRVEIR
Epitope mapped by SPOTs [1]: (SEQ ID NO: 95)

B5: 211: XenoMax derived human anti-EGFRvIII antibody, from well 190D7 (antibody, V domains shown)
VH: QVQLVESGGGVVQPGRSLRLSCVASGFTLSSYGMHWVRQAPGKGLEWVAVTSYDGSKKDYADSAKGRFTISRDNSKNTLYLQMNSLRAEDTAVYYCVSEGYCSSSSCYKYYYYGMDVWGQGTTVTVSS
VL: DIVMTQSPLSLPVTPGEPASISCRSSQSLLYRNGNNYLDWYLQRPGQSPQLLIYLGSNRASGVPDRFSGSGSGTDFTLKISRVEAEDVGVYYCMQALQTPRTFGQGTKVEIK
Binding to purified EGFRvIII in Western blots [6]: binds to both native and reduced | Binding in Western blot of A431 lysate, reduced sample [7]: no signal | Binding in Western blot of lysate of A431 cells [7]: cross reacted | Binding in Western blot of A431 lysate, non-reduced sample ([7]; band of the size of wild-type EGFR): binds strongly | Epitope mapped by SPOTs [1]: (SEQ ID NO: 97) | Binding to purified wildtype EGFr in Western blots [8]: cross reacted
